The Human Domainome abundance scans (Beltran et al. 2025)
± gives the uncertainty stated by the source.

B1: Zinc finger homeobox protein 4, residues 2086 to 2141; numbered along this chain, Q86UP3 (parent)
chain: RPRTRITDDQLKILRAYFDINNSPSEEQIQEMAEKSGLSQKVIKHWFRNTLFKERQ

Variants of: B1
Test: abundance fitness (aPCA) (normalised: wild type 0, dead -1); higher = more abundant; growth selection in yeast, the domain comes from the species named
Details: Homo sapiens
Work on RPRTRITDDALKILRAYFDINNSPSEEQIQEMAEKSGLSQKVIKHWFRNTLFKERQ [Q10A] yielded an abundance fitness of -0.461 ± 0.076.
With RPRTRITDDQQKILRAYFDINNSPSEEQIQEMAEKSGLSQKVIKHWFRNTLFKERQ [L11Q] the abundance fitness was -0.147 ± 0.1.
In the case of RPRTRITDDQDKILRAYFDINNSPSEEQIQEMAEKSGLSQKVIKHWFRNTLFKERQ [L11D], the abundance fitness is reported as -0.069 ± 0.13.
RPRTRITDDQNKILRAYFDINNSPSEEQIQEMAEKSGLSQKVIKHWFRNTLFKERQ [L11N] showed an abundance fitness of -0.024 ± 0.17.
Variant RPRTRITDDQPKILRAYFDINNSPSEEQIQEMAEKSGLSQKVIKHWFRNTLFKERQ [L11P] has an abundance fitness of -0.769 ± 0.11.
Variant RPRTRITDDQMKILRAYFDINNSPSEEQIQEMAEKSGLSQKVIKHWFRNTLFKERQ [L11M] has an abundance fitness of -0.148 ± 0.11.
Work on RPRTRITDDQTKILRAYFDINNSPSEEQIQEMAEKSGLSQKVIKHWFRNTLFKERQ [L11T] yielded an abundance fitness of -0.115 ± 0.087.
In the case of RPRTRITDDQFKILRAYFDINNSPSEEQIQEMAEKSGLSQKVIKHWFRNTLFKERQ [L11F], the abundance fitness is reported as -0.134 ± 0.086.
RPRTRITDDQGKILRAYFDINNSPSEEQIQEMAEKSGLSQKVIKHWFRNTLFKERQ [L11G] showed an abundance fitness of -0.172 ± 0.065.
Work on RPRTRITDDQVKILRAYFDINNSPSEEQIQEMAEKSGLSQKVIKHWFRNTLFKERQ [L11V] yielded an abundance fitness of -0.18 ± 0.074.
Work on RPRTRITDDQCKILRAYFDINNSPSEEQIQEMAEKSGLSQKVIKHWFRNTLFKERQ [L11C] yielded an abundance fitness of -0.392 ± 0.096.
For RPRTRITDDQSKILRAYFDINNSPSEEQIQEMAEKSGLSQKVIKHWFRNTLFKERQ [L11S], the abundance fitness was -0.043 ± 0.073.
Variant RPRTRITDDQKKILRAYFDINNSPSEEQIQEMAEKSGLSQKVIKHWFRNTLFKERQ [L11K] has an abundance fitness of 0.138 ± 0.11.
For RPRTRITDDQRKILRAYFDINNSPSEEQIQEMAEKSGLSQKVIKHWFRNTLFKERQ [L11R], the abundance fitness was -0.026 ± 0.069.
With RPRTRITDDQWKILRAYFDINNSPSEEQIQEMAEKSGLSQKVIKHWFRNTLFKERQ [L11W] the abundance fitness was -0.205 ± 0.077.
In the case of RPRTRITDDQIKILRAYFDINNSPSEEQIQEMAEKSGLSQKVIKHWFRNTLFKERQ [L11I], the abundance fitness is reported as -0.14 ± 0.13.
In the case of RPRTRITDDQEKILRAYFDINNSPSEEQIQEMAEKSGLSQKVIKHWFRNTLFKERQ [L11E], the abundance fitness is reported as 0.059 ± 0.097.
With RPRTRITDDQAKILRAYFDINNSPSEEQIQEMAEKSGLSQKVIKHWFRNTLFKERQ [L11A] the abundance fitness was -0.193 ± 0.069.
Work on RPRTRITDDQHKILRAYFDINNSPSEEQIQEMAEKSGLSQKVIKHWFRNTLFKERQ [L11H] yielded an abundance fitness of -0.165 ± 0.11.
Work on RPRTRITDDQYKILRAYFDINNSPSEEQIQEMAEKSGLSQKVIKHWFRNTLFKERQ [L11Y] yielded an abundance fitness of 0.155 ± 0.13.
RPRTRITDDQLMILRAYFDINNSPSEEQIQEMAEKSGLSQKVIKHWFRNTLFKERQ [K12M] showed an abundance fitness of -0.071 ± 0.091.
RPRTRITDDQLAILRAYFDINNSPSEEQIQEMAEKSGLSQKVIKHWFRNTLFKERQ [K12A] showed an abundance fitness of -0.137 ± 0.084.
With RPRTRITDDQLHILRAYFDINNSPSEEQIQEMAEKSGLSQKVIKHWFRNTLFKERQ [K12H] the abundance fitness was -0.34 ± 0.13.
Work on RPRTRITDDQLPILRAYFDINNSPSEEQIQEMAEKSGLSQKVIKHWFRNTLFKERQ [K12P] yielded an abundance fitness of -0.16 ± 0.093.
RPRTRITDDQLNILRAYFDINNSPSEEQIQEMAEKSGLSQKVIKHWFRNTLFKERQ [K12N] showed an abundance fitness of -0.007 ± 0.11.
Variant RPRTRITDDQLCILRAYFDINNSPSEEQIQEMAEKSGLSQKVIKHWFRNTLFKERQ [K12C] has an abundance fitness of -0.112 ± 0.099.
For RPRTRITDDQLEILRAYFDINNSPSEEQIQEMAEKSGLSQKVIKHWFRNTLFKERQ [K12E], the abundance fitness was -0.076 ± 0.1.
RPRTRITDDQLLILRAYFDINNSPSEEQIQEMAEKSGLSQKVIKHWFRNTLFKERQ [K12L] gave an abundance fitness of 0.005 ± 0.073.
Variant RPRTRITDDQLRILRAYFDINNSPSEEQIQEMAEKSGLSQKVIKHWFRNTLFKERQ [K12R] has an abundance fitness of -0.039 ± 0.065.
In the case of RPRTRITDDQLYILRAYFDINNSPSEEQIQEMAEKSGLSQKVIKHWFRNTLFKERQ [K12Y], the abundance fitness is reported as -0.422 ± 0.13.
RPRTRITDDQLWILRAYFDINNSPSEEQIQEMAEKSGLSQKVIKHWFRNTLFKERQ [K12W] showed an abundance fitness of -0.379 ± 0.082.
Work on RPRTRITDDQLGILRAYFDINNSPSEEQIQEMAEKSGLSQKVIKHWFRNTLFKERQ [K12G] yielded an abundance fitness of -0.146 ± 0.068.
For RPRTRITDDQLIILRAYFDINNSPSEEQIQEMAEKSGLSQKVIKHWFRNTLFKERQ [K12I], the abundance fitness was -0.094 ± 0.15.
RPRTRITDDQLSILRAYFDINNSPSEEQIQEMAEKSGLSQKVIKHWFRNTLFKERQ [K12S] showed an abundance fitness of -0.09 ± 0.081.
RPRTRITDDQLDILRAYFDINNSPSEEQIQEMAEKSGLSQKVIKHWFRNTLFKERQ [K12D] gave an abundance fitness of -0.212 ± 0.12.
RPRTRITDDQLVILRAYFDINNSPSEEQIQEMAEKSGLSQKVIKHWFRNTLFKERQ [K12V] showed an abundance fitness of -0.045 ± 0.075.
Variant RPRTRITDDQLQILRAYFDINNSPSEEQIQEMAEKSGLSQKVIKHWFRNTLFKERQ [K12Q] has an abundance fitness of -0.029 ± 0.11.
In the case of RPRTRITDVQLKILRAYFDINNSPSEEQIQEMAEKSGLSQKVIKHWFRNTLFKERQ [D9V], the abundance fitness is reported as -0.162 ± 0.073.
Variant RPRTRITDRQLKILRAYFDINNSPSEEQIQEMAEKSGLSQKVIKHWFRNTLFKERQ [D9R] has an abundance fitness of -0.134 ± 0.078.
Work on RPRTRITDMQLKILRAYFDINNSPSEEQIQEMAEKSGLSQKVIKHWFRNTLFKERQ [D9M] yielded an abundance fitness of -0.084 ± 0.091.
Work on RPRTRITDQQLKILRAYFDINNSPSEEQIQEMAEKSGLSQKVIKHWFRNTLFKERQ [D9Q] yielded an abundance fitness of -0.083 ± 0.12.
With RPRTRITDWQLKILRAYFDINNSPSEEQIQEMAEKSGLSQKVIKHWFRNTLFKERQ [D9W] the abundance fitness was -0.155 ± 0.11.
In the case of RPRTRITDYQLKILRAYFDINNSPSEEQIQEMAEKSGLSQKVIKHWFRNTLFKERQ [D9Y], the abundance fitness is reported as -0.041 ± 0.069.
Work on RPRTRITDPQLKILRAYFDINNSPSEEQIQEMAEKSGLSQKVIKHWFRNTLFKERQ [D9P] yielded an abundance fitness of -0.002 ± 0.07.
For RPRTRITDNQLKILRAYFDINNSPSEEQIQEMAEKSGLSQKVIKHWFRNTLFKERQ [D9N], the abundance fitness was 0.047 ± 0.069.
With RPRTRITDTQLKILRAYFDINNSPSEEQIQEMAEKSGLSQKVIKHWFRNTLFKERQ [D9T] the abundance fitness was 0.165 ± 0.07.
Work on RPRTRITDSQLKILRAYFDINNSPSEEQIQEMAEKSGLSQKVIKHWFRNTLFKERQ [D9S] yielded an abundance fitness of 0.084 ± 0.065.
